Assay results: the supplement of paper PMC7877785
± gives the uncertainty stated by the source.

Assay: self-splicing fitness, log relative to wild type (ln ratio); higher = more splicing; Tetrahymena group I intron in knt gene, E. coli kanamycin selection, DiMSum; sequences stand for … in CUCUCU…GGAGGGAAAAGUUAUCAGGCAUGCACCUGGUAGCUAGUCUUUAAACCAAUAGAUUGCAUCGGUUUAAAAGGCAAGACCGUCAAAUUGCGGGAAAGGGGUCAACAGCCGUUCAGUACCAAGUCUCAGGGGAAACUUUGAGAUGGCCUUGCAAAGGGUAUGGUAAUAAGCUGACGGACAUGGUCCUAACCACGCAGCCAAGUCCUAAGUCAACAGAUCUUCUGUUGAUAUGGAUGCAGUUCACAGACUAAAUGUCGGUCGGGGAAGAUGUAUUCUUCUCAUAAGAUAUAGUCGGACCUCUCCUUAAUGGGAGCUAGCGGAUGAAGUGAUGCAACACUGGAGCCGCUGGGAACUAAUUUGUAUGCGAAAGUAUAUUGAUUAGUUUUGGAGUACUCGUGGUCG
Summary of the method: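 DiMSum derived fitness as the error-weighted combination of fold changes across replicates, kanamycin versus no kanamycin, normalised to wild type. E. coli BL21(DE3) held the library, which randomised all eight P1ex-region intron nucleotides within the knt kanamycin-resistance gene on pET-22b(+). Six replicate transformations grew overnight at 37°C or 30°C on LB agar with or without 25 μg/mL kanamycin, also containing 100 μg/mL carbenicillin, 50 μM IPTG and 0.2% rhamnose, and pooled colonies were amplicon-sequenced on an Illumina HiSeq 2500.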

Sequence	self-splicing fitness (ln) (30 °C)	self-splicing fitness (ln) (37 °C)
UCGCAGCAAUAUUACGAGCU	-3.14 ± 0.39	-2.22 ± 0.26
AUACAGCAAUAUUACGGAUC	-3.54 ± 0.23	-2.53 ± 0.23
AGCUAGCAAUAUUACGACGU	0.0109 ± 0.068	-0.112 ± 0.08
UGUCAGCAAUAUUACGCAGG	-2.52 ± 0.2	-3.19 ± 0.26
UGAAAGCAAUAUUACGUAUC	-3.86 ± 0.28	-2.38 ± 0.25
AUCAAGCAAUAUUACGAGAG	-3.32 ± 0.16	-1.76 ± 0.11
UUUCAGCAAUAUUACGCUGC	-2.48 ± 0.31	-1.14 ± 0.35
CUGUAGCAAUAUUACGAUUG	-1.2 ± 0.23	0.185 ± 0.22
CGGCAGCAAUAUUACGGUGU	-4.04 ± 0.2	-2.55 ± 0.17
ACUUAGCAAUAUUACGGAUC	-2.09 ± 0.11	-1.35 ± 0.16
CGGAAGCAAUAUUACGGCCA	0.0398 ± 0.097	0.672 ± 0.16
AGUAAGCAAUAUUACGCUGC	-2.97 ± 0.29	–
UCUAAGCAAUAUUACGCUGA	-3.56 ± 0.41	-2.52 ± 0.33
AUAGAGCAAUAUUACGGAAU	-1.26 ± 0.15	-1.24 ± 0.18
GAAAAGCAAUAUUACGGGAG	-2.95 ± 0.097	-1.95 ± 0.086
GAUCAGCAAUAUUACGCUAG	-1.15 ± 0.15	-0.723 ± 0.18
UUUUAGCAAUAUUACGAGAU	–	-1.25 ± 0.4
UGCCAGCAAUAUUACGCCUU	-1.93 ± 0.13	-2.29 ± 0.18
UCUAAGCAAUAUUACGCCCC	–	-1.6 ± 0.44
UUCGAGCAAUAUUACGCAAU	–	-2.13 ± 0.43
GAUCAGCAAUAUUACGCCUU	-0.124 ± 0.12	0.438 ± 0.14
GCCGAGCAAUAUUACGUAUC	-2.66 ± 0.16	-1.75 ± 0.13
AUUCAGCAAUAUUACGAUAA	-0.72 ± 0.086	-0.295 ± 0.099
GAGUAGCAAUAUUACGCGCC	-1.42 ± 0.3	-0.361 ± 0.29
AUCAAGCAAUAUUACGCUUG	-4.23 ± 0.39	-2.6 ± 0.22
AUUCAGCAAUAUUACGUUAC	-2.76 ± 0.17	-1.2 ± 0.12
GGGGAGCAAUAUUACGGAGU	-1.01 ± 0.41	–

Sequence	self-splicing fitness (ln) (30 °C)	self-splicing fitness (ln) (37 °C)
GUACAGCAAUAUUACGGUCC	-0.203 ± 0.11	-0.766 ± 0.13
GAGUAGCAAUAUUACGUCUG	-0.699 ± 0.12	-0.363 ± 0.15
GCACAGCAAUAUUACGCCCC	-0.949 ± 0.12	-0.0642 ± 0.15
AUUAAGCAAUAUUACGUCAU	-1.51 ± 0.1	-0.717 ± 0.12
CCUAAGCAAUAUUACGAGUU	-4.08 ± 0.2	-2.22 ± 0.14
CAAAAGCAAUAUUACGAGUA	-3.32 ± 0.14	-1.89 ± 0.11
CUAAAGCAAUAUUACGCCAG	-0.416 ± 0.13	0.13 ± 0.19
CUCCAGCAAUAUUACGAUUU	-3.75 ± 0.2	-2.08 ± 0.15
GGGUAGCAAUAUUACGCAAU	-1.79 ± 0.31	-1.47 ± 0.39
GCAAAGCAAUAUUACGAGGG	-3.02 ± 0.11	-1.55 ± 0.1
UCGAAGCAAUAUUACGGGAA	-2.02 ± 0.12	-0.804 ± 0.11
CAAUAGCAAUAUUACGUAAG	0.0257 ± 0.049	0.121 ± 0.062
GCCAAGCAAUAUUACGGGAC	-3.02 ± 0.15	-0.694 ± 0.099
UGAGAGCAAUAUUACGUGAG	-2.43 ± 0.14	-1.83 ± 0.2
GUUGAGCAAUAUUACGACCG	–	-1.77 ± 0.47
GGUGAGCAAUAUUACGUAUC	-1.77 ± 0.1	-0.807 ± 0.12
UAGUAGCAAUAUUACGCAAU	–	-2.45 ± 0.35
CUAGAGCAAUAUUACGCCCA	-3.13 ± 0.33	–
CUCUAGCAAUAUUACGGGCA	-2.62 ± 0.23	-2.29 ± 0.23
UGGGAGCAAUAUUACGAGAU	-1.91 ± 0.27	-2.04 ± 0.47
CCUGAGCAAUAUUACGUGCG	-3.69 ± 0.22	-1.04 ± 0.16
UUUGAGCAAUAUUACGGGUG	-4.1 ± 0.3	-2.22 ± 0.21
CAUCAGCAAUAUUACGGUAA	-2.64 ± 0.14	-1.09 ± 0.086
UGUGAGCAAUAUUACGGGUA	-2.92 ± 0.2	-2.86 ± 0.31
UUUCAGCAAUAUUACGUUAU	-2.94 ± 0.2	-1.47 ± 0.14
GUAGAGCAAUAUUACGCUAC	-2.54 ± 0.25	-2.15 ± 0.34
AGUGAGCAAUAUUACGUCCU	0.0407 ± 0.17	0.233 ± 0.18

Sequence	self-splicing fitness (ln) (30 °C)	self-splicing fitness (ln) (37 °C)
AUAUAGCAAUAUUACGCGUU	-1.67 ± 0.2	-1.61 ± 0.24
UUCGAGCAAUAUUACGUCGG	-2.96 ± 0.28	-1.78 ± 0.29
CUACAGCAAUAUUACGGUGA	-1.61 ± 0.081	-0.453 ± 0.092
UACUAGCAAUAUUACGGUUA	-0.377 ± 0.1	0.35 ± 0.12
GGCCAGCAAUAUUACGCACC	-2.17 ± 0.12	-0.636 ± 0.14
GGUAAGCAAUAUUACGACGC	0.697 ± 0.17	0.22 ± 0.21
UGCCAGCAAUAUUACGCCCC	-2.29 ± 0.26	-1.44 ± 0.29
UCAUAGCAAUAUUACGAUGC	-1.49 ± 0.14	-1.43 ± 0.14
CGAUAGCAAUAUUACGGUUU	-3.43 ± 0.15	-0.7 ± 0.1
ACUUAGCAAUAUUACGCGUG	-1.89 ± 0.1	-1.13 ± 0.11
CCAUAGCAAUAUUACGUAGU	-3.93 ± 0.24	-2.14 ± 0.23
AAGUAGCAAUAUUACGACCC	0.421 ± 0.3	0.212 ± 0.29
ACUGAGCAAUAUUACGAAGC	–	-2.04 ± 0.46
GGCAAGCAAUAUUACGCUCU	-2.51 ± 0.17	-1.96 ± 0.18
UAGAAGCAAUAUUACGGGAG	-1.97 ± 0.14	-1.39 ± 0.12
GAGAAGCAAUAUUACGGCGA	0.0811 ± 0.15	-0.777 ± 0.12
GUACAGCAAUAUUACGCCUC	-0.924 ± 0.14	-0.219 ± 0.16
CCCUAGCAAUAUUACGUUAC	-4.52 ± 0.29	-2.53 ± 0.27
CUGUAGCAAUAUUACGCACG	-0.568 ± 0.12	-0.0751 ± 0.12
UCUUAGCAAUAUUACGCGUC	-4.03 ± 0.33	–
UCACAGCAAUAUUACGGCGG	-0.848 ± 0.056	0.0491 ± 0.078
UCACAGCAAUAUUACGUUUU	-3.72 ± 0.14	-3.09 ± 0.15
AGGCAGCAAUAUUACGGCGU	-0.172 ± 0.063	-0.0953 ± 0.079
CUGUAGCAAUAUUACGGCGG	-2.82 ± 0.27	-1.93 ± 0.32
GAUGAGCAAUAUUACGUUAC	-2.14 ± 0.13	-0.982 ± 0.23
